B1: MPH12 VH-D62E / MPH12 VL-D25E (antibody, V domains shown)
VH: QVQLVESGGGLVKPGGSLRLSCVASGFTFSGFYMKWIRQAPGKGLEWVSSISASGSYTNYAESVEGRFTVSRDNAKNSLFLLMSSLRAEDTAVYYCARGDSYCGASACHGEFFHKWGQGTLVTVSS
VL: QSVLTQPPSVSGAPGQRVTISCTGSESNIGADFDVHWYQQLPGTAPKLLIYGNINRPSGVPDRFSGSRSGTSAFLAITRLQAEDEADYYCQSYDRSLHYVFGAGTKVTVL
notes: MPH12 variant; VH and VL only
B2: MPH12 VH / MPH12 VL-S26A (antibody, V domains shown)
VH: QVQLVESGGGLVKPGGSLRLSCVASGFTFSGFYMKWIRQAPGKGLEWVSSISASGSYTNYADSVEGRFTVSRDNAKNSLFLLMSSLRAEDTAVYYCARGDSYCGASACHGEFFHKWGQGTLVTVSS
VL: QSVLTQPPSVSGAPGQRVTISCTGSDANIGADFDVHWYQQLPGTAPKLLIYGNINRPSGVPDRFSGSRSGTSAFLAITRLQAEDEADYYCQSYDRSLHYVFGAGTKVTVL
notes: MPH12 variant; VH and VL only
B3: MPH12 VH-FRGL-D62E / MPH12 VL (antibody, V domains shown)
VH: QVQLVESGGGLVKPGGSLRLSCAASGFTFSGFYMKWIRQAPGKGLEWVSSISASGSYTNYAESVEGRFTISRDNAKNSLYLQMNSLRAEDTAVYYCARGDSYCGASACHGEFFHKWGQGTLVTVSS
VL: QSVLTQPPSVSGAPGQRVTISCTGSDSNIGADFDVHWYQQLPGTAPKLLIYGNINRPSGVPDRFSGSRSGTSAFLAITRLQAEDEADYYCQSYDRSLHYVFGAGTKVTVL
notes: MPH12 variant; VH and VL only
B4: MPH12 VH-S63A / MPH12 VL-D25S (antibody, V domains shown)
VH: QVQLVESGGGLVKPGGSLRLSCVASGFTFSGFYMKWIRQAPGKGLEWVSSISASGSYTNYADAVEGRFTVSRDNAKNSLFLLMSSLRAEDTAVYYCARGDSYCGASACHGEFFHKWGQGTLVTVSS
VL: QSVLTQPPSVSGAPGQRVTISCTGSSSNIGADFDVHWYQQLPGTAPKLLIYGNINRPSGVPDRFSGSRSGTSAFLAITRLQAEDEADYYCQSYDRSLHYVFGAGTKVTVL
notes: MPH12 variant; VH and VL only
B5: MPH12 VH-S63A / MPH12 VL-S26A (antibody, V domains shown)
VH: QVQLVESGGGLVKPGGSLRLSCVASGFTFSGFYMKWIRQAPGKGLEWVSSISASGSYTNYADAVEGRFTVSRDNAKNSLFLLMSSLRAEDTAVYYCARGDSYCGASACHGEFFHKWGQGTLVTVSS
VL: QSVLTQPPSVSGAPGQRVTISCTGSDANIGADFDVHWYQQLPGTAPKLLIYGNINRPSGVPDRFSGSRSGTSAFLAITRLQAEDEADYYCQSYDRSLHYVFGAGTKVTVL
notes: MPH12 variant; VH and VL only
B6: MPH12 VH-FRGL-S63A / MPH12 VL-FRGL (antibody, V domains shown)
VH: QVQLVESGGGLVKPGGSLRLSCAASGFTFSGFYMKWIRQAPGKGLEWVSSISASGSYTNYADAVEGRFTISRDNAKNSLYLQMNSLRAEDTAVYYCARGDSYCGASACHGEFFHKWGQGTLVTVSS
VL: QSVLTQPPSVSGAPGQRVTISCTGSDSNIGADFDVHWYQQLPGTAPKLLIYGNINRPSGVPDRFSGSKSGTSASLAITGLQAEDEADYYCQSYDRSLHYVFGTGTKVTVL
notes: MPH12 variant; VH and VL only
B7: MPH12 VH-FRGL-D62E / MPH12 VL-FRGL (antibody, V domains shown)
VH: QVQLVESGGGLVKPGGSLRLSCAASGFTFSGFYMKWIRQAPGKGLEWVSSISASGSYTNYAESVEGRFTISRDNAKNSLYLQMNSLRAEDTAVYYCARGDSYCGASACHGEFFHKWGQGTLVTVSS
VL: QSVLTQPPSVSGAPGQRVTISCTGSDSNIGADFDVHWYQQLPGTAPKLLIYGNINRPSGVPDRFSGSKSGTSASLAITGLQAEDEADYYCQSYDRSLHYVFGTGTKVTVL
notes: MPH12 variant; VH and VL only
B8: MPH12 VH / MPH12 VL-FRGL (antibody, V domains shown)
VH: QVQLVESGGGLVKPGGSLRLSCVASGFTFSGFYMKWIRQAPGKGLEWVSSISASGSYTNYADSVEGRFTVSRDNAKNSLFLLMSSLRAEDTAVYYCARGDSYCGASACHGEFFHKWGQGTLVTVSS
VL: QSVLTQPPSVSGAPGQRVTISCTGSDSNIGADFDVHWYQQLPGTAPKLLIYGNINRPSGVPDRFSGSKSGTSASLAITGLQAEDEADYYCQSYDRSLHYVFGTGTKVTVL
notes: MPH12 variant; VH and VL only
B9: MPH12 VH / MPH12 VL-D25S (antibody, V domains shown)
VH: QVQLVESGGGLVKPGGSLRLSCVASGFTFSGFYMKWIRQAPGKGLEWVSSISASGSYTNYADSVEGRFTVSRDNAKNSLFLLMSSLRAEDTAVYYCARGDSYCGASACHGEFFHKWGQGTLVTVSS
VL: QSVLTQPPSVSGAPGQRVTISCTGSSSNIGADFDVHWYQQLPGTAPKLLIYGNINRPSGVPDRFSGSRSGTSAFLAITRLQAEDEADYYCQSYDRSLHYVFGAGTKVTVL
notes: MPH12 variant; VH and VL only
B10: MPH12 VH-S63A / MPH12 VL-FRGL (antibody, V domains shown)
VH: QVQLVESGGGLVKPGGSLRLSCVASGFTFSGFYMKWIRQAPGKGLEWVSSISASGSYTNYADAVEGRFTVSRDNAKNSLFLLMSSLRAEDTAVYYCARGDSYCGASACHGEFFHKWGQGTLVTVSS
VL: QSVLTQPPSVSGAPGQRVTISCTGSDSNIGADFDVHWYQQLPGTAPKLLIYGNINRPSGVPDRFSGSKSGTSASLAITGLQAEDEADYYCQSYDRSLHYVFGTGTKVTVL
notes: MPH12 variant; VH and VL only
B11: MPH12 VH-FRGL-D62E / MPH12 VL-D25E (antibody, V domains shown)
VH: QVQLVESGGGLVKPGGSLRLSCAASGFTFSGFYMKWIRQAPGKGLEWVSSISASGSYTNYAESVEGRFTISRDNAKNSLYLQMNSLRAEDTAVYYCARGDSYCGASACHGEFFHKWGQGTLVTVSS
VL: QSVLTQPPSVSGAPGQRVTISCTGSESNIGADFDVHWYQQLPGTAPKLLIYGNINRPSGVPDRFSGSRSGTSAFLAITRLQAEDEADYYCQSYDRSLHYVFGAGTKVTVL
notes: MPH12 variant; VH and VL only
B12: MPH12 VH / MPH12 VL-D25E (antibody, V domains shown)
VH: QVQLVESGGGLVKPGGSLRLSCVASGFTFSGFYMKWIRQAPGKGLEWVSSISASGSYTNYADSVEGRFTVSRDNAKNSLFLLMSSLRAEDTAVYYCARGDSYCGASACHGEFFHKWGQGTLVTVSS
VL: QSVLTQPPSVSGAPGQRVTISCTGSESNIGADFDVHWYQQLPGTAPKLLIYGNINRPSGVPDRFSGSRSGTSAFLAITRLQAEDEADYYCQSYDRSLHYVFGAGTKVTVL
notes: MPH12 variant; VH and VL only
B13: MPH12 VH-S63A / MPH12 VL (antibody, V domains shown)
VH: QVQLVESGGGLVKPGGSLRLSCVASGFTFSGFYMKWIRQAPGKGLEWVSSISASGSYTNYADAVEGRFTVSRDNAKNSLFLLMSSLRAEDTAVYYCARGDSYCGASACHGEFFHKWGQGTLVTVSS
VL: QSVLTQPPSVSGAPGQRVTISCTGSDSNIGADFDVHWYQQLPGTAPKLLIYGNINRPSGVPDRFSGSRSGTSAFLAITRLQAEDEADYYCQSYDRSLHYVFGAGTKVTVL
notes: MPH12 variant; VH and VL only
B14: MPH12 VH-D62E / MPH12 VL (antibody, V domains shown)
VH: QVQLVESGGGLVKPGGSLRLSCVASGFTFSGFYMKWIRQAPGKGLEWVSSISASGSYTNYAESVEGRFTVSRDNAKNSLFLLMSSLRAEDTAVYYCARGDSYCGASACHGEFFHKWGQGTLVTVSS
VL: QSVLTQPPSVSGAPGQRVTISCTGSDSNIGADFDVHWYQQLPGTAPKLLIYGNINRPSGVPDRFSGSRSGTSAFLAITRLQAEDEADYYCQSYDRSLHYVFGAGTKVTVL
notes: MPH12 variant; VH and VL only
B15: MPH12 VH-S63A / MPH12 VL-D25E (antibody, V domains shown)
VH: QVQLVESGGGLVKPGGSLRLSCVASGFTFSGFYMKWIRQAPGKGLEWVSSISASGSYTNYADAVEGRFTVSRDNAKNSLFLLMSSLRAEDTAVYYCARGDSYCGASACHGEFFHKWGQGTLVTVSS
VL: QSVLTQPPSVSGAPGQRVTISCTGSESNIGADFDVHWYQQLPGTAPKLLIYGNINRPSGVPDRFSGSRSGTSAFLAITRLQAEDEADYYCQSYDRSLHYVFGAGTKVTVL
notes: MPH12 variant; VH and VL only
B16: MPH12 VH-FRGL-S63A / MPH12 VL (antibody, V domains shown)
VH: QVQLVESGGGLVKPGGSLRLSCAASGFTFSGFYMKWIRQAPGKGLEWVSSISASGSYTNYADAVEGRFTISRDNAKNSLYLQMNSLRAEDTAVYYCARGDSYCGASACHGEFFHKWGQGTLVTVSS
VL: QSVLTQPPSVSGAPGQRVTISCTGSDSNIGADFDVHWYQQLPGTAPKLLIYGNINRPSGVPDRFSGSRSGTSAFLAITRLQAEDEADYYCQSYDRSLHYVFGAGTKVTVL
notes: MPH12 variant; VH and VL only
B17: MPH12 VH-D62E / MPH12 VL-S26A (antibody, V domains shown)
VH: QVQLVESGGGLVKPGGSLRLSCVASGFTFSGFYMKWIRQAPGKGLEWVSSISASGSYTNYAESVEGRFTVSRDNAKNSLFLLMSSLRAEDTAVYYCARGDSYCGASACHGEFFHKWGQGTLVTVSS
VL: QSVLTQPPSVSGAPGQRVTISCTGSDANIGADFDVHWYQQLPGTAPKLLIYGNINRPSGVPDRFSGSRSGTSAFLAITRLQAEDEADYYCQSYDRSLHYVFGAGTKVTVL
notes: MPH12 variant; VH and VL only
B18: MPH12 VH-FRGL-S63A / MPH12 VL-D25E (antibody, V domains shown)
VH: QVQLVESGGGLVKPGGSLRLSCAASGFTFSGFYMKWIRQAPGKGLEWVSSISASGSYTNYADAVEGRFTISRDNAKNSLYLQMNSLRAEDTAVYYCARGDSYCGASACHGEFFHKWGQGTLVTVSS
VL: QSVLTQPPSVSGAPGQRVTISCTGSESNIGADFDVHWYQQLPGTAPKLLIYGNINRPSGVPDRFSGSRSGTSAFLAITRLQAEDEADYYCQSYDRSLHYVFGAGTKVTVL
notes: MPH12 variant; VH and VL only
B19: MPK190-rIgG1-LS (antibody, V domains shown)
VH: EVQLVESGGGLVKPGGSLTLSCAASGFSISGYGMNWVRQAPGRGLEWVASISASSTYIYYADSMKGRFTISRDNGKTSLYLQMKSLRAEDTAVYYCARAPIEPPYFDLWGRGTLVTVSS
VL: QSVLTQPPSVSGAPGQRVTISCTGSNSNIGAGYDVHWYQHLPGKAPKVLIYGNNNRPSVVPDRFSGSNSGASASLAISGLQAEDEADYFCQSYDRRLSGPIFGGGTKLTVL

Tests used:
DS-Cav1 RSV F = biological target: T1, DS-Cav1 RSV F (respiratory syncytial virus); test: ELISA on DS-Cav1 RSV F
T1 construct: also called DC-VCav1

[1] = biological target: fusion glycoprotein (F) of RSV A GFP (Tables 41 and 42) (respiratory syncytial virus A); test: cell-based or functional assay
[2] = biological target: fusion glycoprotein (F) of RSV B GFP (Tables 41 and 42) (respiratory syncytial virus B); test: cell-based or functional assay
[3] = biological target: fusion glycoprotein (F) of MPV A GFP (Tables 41 and 43) (metapneumovirus A); test: cell-based or functional assay

Binder	EC50 (DS-Cav1 RSV F) [mg/L]	other results
B1	0.0274	
B2	0.0508	
B3	0.051	
B4	0.0249	
B5	0.0258	
B6	0.0153	
B7	0.0349	
B8	0.0358	
B9	0.0235	
B10	0.0254	
B11	0.0397	
B12	0.0438	
B13	0.0358	
B14	0.0241	
B15	0.0406	
B16	0.0238	
B17	0.031	
B18	0.0368	
B19		IC50 (ng/ml), RSV A GFP neutralization; sample MPK190-rIgG1-LS/4B6 [1]: 3.73 ng/mL; IC50 (ng/ml), RSV A GFP neutralization; sample MPK190-rIgG1-LS/KYT [1]: 3.88 ng/mL; IC50 (ng/ml), RSV A GFP neutralization; stressed sample MPK190-rIgG1-LS day 0 [1]: 3.21 ng/mL; IC50 (ng/ml), RSV A GFP neutralization; stressed sample MPK190-rIgG1-LS day 7 [1]: 2.94 ng/mL; IC50 (ng/ml), RSV A GFP neutralization; stressed sample MPK190-rIgG1-LS day 12 (day 13 in Table 41) [1]: 7.02 ng/mL; IC50 (ng/ml), RSV B GFP neutralization; sample MPK190-rIgG1-LS/4B6 [2]: 6.39 ng/mL; IC50 (ng/ml), RSV B GFP neutralization; sample MPK190-rIgG1-LS/KYT [2]: 3.36 ng/mL; IC50 (ng/ml), RSV B GFP neutralization; stressed sample MPK190-rIgG1-LS day 0 [2]: 4.1 ng/mL; IC50 (ng/ml), RSV B GFP neutralization; stressed sample MPK190-rIgG1-LS day 7 [2]: 4.4 ng/mL; IC50 (ng/ml), RSV B GFP neutralization; stressed sample MPK190-rIgG1-LS day 12 (day 13 in Table 41) [2]: 4.51 ng/mL; IC50 (ng/ml), MPV A GFP neutralization; sample MPK190-rIgG1-LS/4B6 [3]: 6.16 ng/mL; IC50 (ng/ml), MPV A GFP neutralization; sample MPK190-rIgG1-LS/KYT [3]: 7.9 ng/mL; IC50 (ng/ml), MPV A GFP neutralization; stressed sample MPK190-rIgG1-LS day 0 [3]: 7.22 ng/mL; IC50 (ng/ml), MPV A GFP neutralization; stressed sample MPK190-rIgG1-LS day 7 [3]: 5.8 ng/mL; IC50 (ng/ml), MPV A GFP neutralization; stressed sample MPK190-rIgG1-LS day 13 [3]: 8.39 ng/mL

— patent US20260028391A1 (HUMABS BIOMED, published 2026)
